The values that follow come from the Immune Epitope Database (IEDB).

The target of experiment [1] is HLA-B*18:01. The experiment in a line: IEDB peptide-MHC binding, purified MHC/direct/fluorescence; filed as Kd, often an IC50 or EC50 that approximates it; ≥ and ≤ were set here for values at or beyond the usual limits of such assays. The note with it: source organism: Cryptosporidium parvum Iowa II.
Experiment [2] addresses HLA-B*58:01. Briefly: IEDB peptide-MHC binding, purified MHC/competitive/radioactivity; filed as Kd, often an IC50 or EC50 that approximates it; ≥ and ≤ were set here for values at or beyond the usual limits of such assays.
For experiment [3], the target named is HLA-B*15:01. The experiment in a line: IEDB peptide-MHC binding, purified MHC/competitive/fluorescence; ≥ and ≤ were set here for values at or beyond the usual limits of such assays.
Experiment [4] concerns the target HLA-A*02:01. The experiment in a line: IEDB peptide-MHC binding, purified MHC/direct/fluorescence; filed as Kd, often an IC50 or EC50 that approximates it; ≥ and ≤ were set here for values at or beyond the usual limits of such assays. Particulars: source organism: Giardia lamblia ATCC 50803.
Experiment [5] deals with HLA-B*15:01. Described as above. Particulars: source organism: Giardia lamblia ATCC 50803.
Experiment [6] deals with HLA-A*01:01. The experiment is described as above. Particulars: source organism: Giardia lamblia ATCC 50803.
Experiment [7] has as its target HLA-B*27:05. The experiment is described as above. The note with it: source organism: Giardia lamblia ATCC 50803.
In experiment [8] the target is HLA-B*08:01. The description is as above. The note with it: source organism: Giardia lamblia ATCC 50803.
The target of experiment [9] is HLA-A*69:01. Described as above. Particulars: source organism: Giardia lamblia ATCC 50803.
Experiment [10] concerns the target HLA-B*44:02. The experiment is described as above. The note with it: source organism: Giardia lamblia ATCC 50803.
Experiment [11] addresses HLA-A*26:01. Described as above. Particulars: source organism: Giardia lamblia ATCC 50803.
The target in experiment [12] is HLA-B*58:01. The description is as above. The note with it: source organism: Giardia lamblia ATCC 50803.
The target of experiment [13] is HLA-A*31:01. Described as above. The note with it: source organism: Giardia lamblia ATCC 50803.
For experiment [14], the target named is HLA-A*03:01. The description is as above. Particulars: source organism: Giardia lamblia ATCC 50803.
The target of experiment [15] is HLA-A*11:01. Described as above. Particulars: source organism: Giardia lamblia ATCC 50803.
Experiment [16] deals with HLA-B*07:02. Described as above. Particulars: source organism: Giardia lamblia ATCC 50803.
Experiment [17] concerns the target HLA-B*40:01. Described as above. Particulars: source organism: Giardia lamblia ATCC 50803.
Experiment [18] deals with HLA-A*02:01. The experiment in a line: IEDB peptide-MHC binding, purified MHC/competitive/fluorescence; ≥ and ≤ were set here for values at or beyond the usual limits of such assays. Particulars: source organism: Zaire ebolavirus.
In experiment [19] the target is HLA-A*24:02. Described as above. The note with it: source organism: Zaire ebolavirus.
For experiment [20], the target named is HLA-B*57:01. The experiment in a line: IEDB peptide-MHC binding, purified MHC/competitive/radioactivity; filed as Kd, often an IC50 or EC50 that approximates it; ≥ and ≤ were set here for values at or beyond the usual limits of such assays.
Experiment [21] concerns the target HLA-A*32:01. Described as above.
The target in experiment [22] is HLA-B*57:01. The experiment in a line: IEDB peptide-MHC binding, purified MHC/direct/fluorescence; filed as Kd, often an IC50 or EC50 that approximates it; ≥ and ≤ were set here for values at or beyond the usual limits of such assays. The note with it: source organism: Giardia lamblia ATCC 50803.
The target in experiment [23] is HLA-A*02:06. Briefly: IEDB peptide-MHC binding, purified MHC/competitive/radioactivity; filed as Kd, often an IC50 or EC50 that approximates it; ≥ and ≤ were set here for values at or beyond the usual limits of such assays. The note with it: source organism: Dengue virus 1 Singapore/S275/1990.
Where [24] appears, read: source organism: Dengue virus 4 Philippines/H241/1956.
Where [25] appears, read: source organism: Zaire ebolavirus.
Setting [26] is: source organism: Dengue virus 3 Martinique/1243/1999.
[27] abbreviates: source organism: Dengue virus 2 Jamaica/1409/1983.
The mark [28] stands for this setting: source organism: Dengue virus 1 Singapore/S275/1990.
The mark [29] stands for this setting: source organism: Dengue virus 1 Brazil/97-11/1997.

As usually defined, the Kd is the concentration at which binding is half-saturated. SESLPIWGI came in with a Kd in experiment [1] of 13.7 µM.
In the case of SSSNPTIEEG, the Kd in [2] (setting [24]) was 5.99 µM.
The term IC50 denotes the concentration that inhibits the measured activity by half. Read a high IC50 as weaker potency. For RQRVIPVYQ, the IC50 in experiment [3] (setting [25]) was found to be 6.37 µM.
As for EFFDTEPQL, the dissociation constant (Kd) in experiment [4], in experiment [5], in experiment [6], in [7], in experiment [8] and in [9] was ≥ 20 µM throughout. For the same sequence, the Kd in experiment [10], in experiment [11], in [12], in [13], in experiment [14] and in experiment [15] was ≥ 20 µM throughout. Moreover, the Kd in experiment [16] was ≥ 20 µM; in experiment [17], 2.77 µM.
As to IQYPTAWQS, the IC50 in experiment [18] is 30.6 µM; in experiment [3] (setting [25]) it was 25.7 µM; in [19], 33.5 µM.
As to ASSLLRNDVP, the Kd in experiment [20] (setting [26]) stood at 11.6 µM; in experiment [2] (setting [26]), 0.745 µM.
For the sequence ERSWNSGHEW, in [2] (setting [27]), the Kd was 0.135 µM.
Consider KSYAQMWTL, for which the Kd worked out at 0.0164 µM in experiment [21] (setting [27]), 0.00659 µM in [20] (setting [27]) and 0.00637 µM in experiment [2] (setting [27]).
Turning to KTQRSGALW, the Kd stood at 0.105 µM in experiment [20] (setting [24]) and 0.00611 µM in experiment [2] (setting [24]).
For WMAPSLTES, the results for the IC50 in [18] and in experiment [3] (setting [25]) were 6.45 µM and 11.4 µM, respectively.
FHKNMIKTY came in with an IC50 in experiment [3] (source organism: Vaccinia virus) of 21.8 µM.
In the case of KLLQICMWF, the Kd in [4] is 3.41 µM; in [5], 16.6 µM; in experiment [6], ≥ 20 µM; in experiment [7], ≥ 20 µM; in [8], ≥ 20 µM; in experiment [9], ≥ 20 µM. In addition, the Kd is ≥ 20 µM in experiment [10]; ≥ 20 µM in [22]; ≥ 20 µM in experiment [11]; 1.47 µM in experiment [12]; ≥ 20 µM in experiment [14]; ≥ 20 µM in [15]. The Kd in experiment [16] and in experiment [17] was ≥ 20 µM in each case.
For MASSVLLWMA, the values for the Kd in experiment [20] (setting [28]), in experiment [2] (setting [28]) and in experiment [23] were 0.859 µM, 0.223 µM and 0.0906 µM, respectively.
Consider TFAEGVVAF, for which the figures for the half-inhibitory concentration (IC50) in experiment [3] (setting [25]) and in experiment [19] were 18.4 µM and 0.213 µM, respectively.
Take KSWLVHKQW: the Kd in experiment [21] (setting [29]) stood at 0.0169 µM; in experiment [20] (setting [29]) it was 0.00587 µM; in [2] (setting [29]), 0.00303 µM.
